The record followed here is paper PMC3081348, “Kaposi's Sarcoma-Associated Herpesvirus-Encoded LANA Down-Regulates IL-22R1 Expression through a Cis-Acting Element within the Promoter Region”.

Data set [1] concerns the target T1, LANA-C (C-terminus of LANA) (Kaposi's sarcoma-associated herpesvirus …, UniProt Q9QR71 918-1129). As to the kind of experiment: EMSA; 4 mM Mg2+, poly(dI-dC); EMSA: 20 mM Tris/HCl pH 7.4, 100 mM NaCl, 4 mM MgCl2, 0.25 mM EDTA, 1 mM DTT, 0.5 ug poly(dI-dC), 10% glycerol, 100 ng labeled oligo, 0-400 ng LANA-C, 20 min at room temperature; 6.5% native PAGE on ice. The conditions noted are these: protein: recombinant, tags: His, chain copies: 2, annealed sense and antisense oligos.

Data set [2] has as its target T1, LANA-C (C-terminus of LANA). As to the kind of experiment: EMSA; 4 mM Mg2+, poly(dI-dC); affinity similar to LBS1; EMSA: 20 mM Tris/HCl pH 7.4, 100 mM NaCl, 4 mM MgCl2, 0.25 mM EDTA, 1 mM DTT, 0.5 ug poly(dI-dC), 10% glycerol, 100 ng labeled oligo, 0-400 ng LANA-C, 20 min at room temperature; 6.5% native PAGE on ice. The conditions noted are these: protein: recombinant; tags: His; chain copies: 2; annealed sense and antisense oligos.

T1 sequence (Q9QR71 918-1129): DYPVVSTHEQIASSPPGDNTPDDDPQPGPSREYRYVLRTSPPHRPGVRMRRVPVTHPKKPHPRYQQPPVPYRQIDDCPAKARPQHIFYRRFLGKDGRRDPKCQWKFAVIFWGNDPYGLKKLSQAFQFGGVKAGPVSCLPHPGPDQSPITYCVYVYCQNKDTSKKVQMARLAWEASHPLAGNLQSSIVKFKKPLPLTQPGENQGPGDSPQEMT

B1: LBS (37 bp, TR DNA LBS1) (dsDNA)
DNA 1: GCGGAATTCGGCCCCATGCCCGGGCGGGAGGCGGGAT
DNA 2: ATCCCGCCTCCCGCCCGGGCATGGGGCCGAATTCCGC
Regarding B1, in data set [1] (label: 5'-biotin), the binding result is “binds”.

B2: LBS-like (IL-22R1 promoter -69 to -34) (dsDNA)
DNA 1: TCCCCGCCCCATGCCCGGGTGGAGCCAGCTGCCAG
DNA 2: CTGGCAGCTGGCTCCACCCGGGCATGGGGCGGGGA
Turning to B2, the binding result in data set [2] was “binds”.

B3: mLBS-like (scrambled LBS-like) (dsDNA)
DNA 1: TCCCCACCGGCTCCGCGCGTGGAGCCAGCTGCCAG
DNA 2: CTGGCAGCTGGCTCCACGCGCGGAGCCGGTGGGGA
B3: in data set [1], the binding result is listed as “no binding”.
